Target: p300 (endogenous human E1A-associated 300 kD protein) (human)
Assay: co-immunoprecipitation with anti-E1A M73 from 35S labelled infected U-2 OS cells

B1: E1A proteins of adenovirus dl646 (missing amino acids 30-85) (other)
chain: MRHIICHGGVITEEMAASLLDQLIEEVLAAPGSPEPPHLSRQPEQPEQRALGPVSMPNLVPEVIDLTCHEAGFPPSDDEDEEGEEFVLDYVEHPGHGCRSCHYHRRNTGDPDIMCSLCYMRTCGMFVYSPVSEPEPEPEPEPEPARPTRRPKMAPAILRRPTSPVSRECNSSTDSCDSGPSNTPPEIHPVVPLCPIKPVAVRVGGRRQAVECIEDLLNEPGQPLDLSCKRPRP
binding result: no binding

Source: patent publication US5658784, “Nucleic acid encoding transcription factor p300 and uses of p300” (Dana-Farber Cancer Institute, Inc., dated 1997)
